# Reference: article PMC5451212, “RISC-interacting clearing 3’- 5’ exoribonucleases (RICEs) degrade uridylated cleavage fragments to maintain functional RISC in Arabidopsis thaliana” (eLife, 2017)
# T1: MBP-AGO10 PIWI (625-988) (A. thaliana, UniProt Q9XGW1 625-988)
# T1 construct: AGO10, A. thaliana, residues 625-988 (PIWI); source: E. coli BL21 (DE3), purified (amylose resin); not shown: MBP, N-terminal, kept
# T1 sequence (looked up): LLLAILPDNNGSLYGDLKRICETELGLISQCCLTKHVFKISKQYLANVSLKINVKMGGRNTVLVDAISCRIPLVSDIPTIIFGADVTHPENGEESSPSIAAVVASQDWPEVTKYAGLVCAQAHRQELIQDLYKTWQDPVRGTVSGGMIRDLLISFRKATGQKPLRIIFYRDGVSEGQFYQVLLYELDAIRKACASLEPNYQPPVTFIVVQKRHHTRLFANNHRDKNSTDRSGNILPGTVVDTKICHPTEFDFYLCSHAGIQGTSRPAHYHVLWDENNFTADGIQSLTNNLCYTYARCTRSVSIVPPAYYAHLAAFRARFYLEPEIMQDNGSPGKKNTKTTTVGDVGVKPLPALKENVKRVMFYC
# T2: MBP-AGO10 (A. thaliana, UniProt Q9XGW1 1-988)
# T2 construct: ARGONAUTE 10 (AGO10), A. thaliana; source: E. coli BL21 (DE3), purified (amylose resin); not shown: MBP, N-terminal, kept
# T2 sequence (looked up): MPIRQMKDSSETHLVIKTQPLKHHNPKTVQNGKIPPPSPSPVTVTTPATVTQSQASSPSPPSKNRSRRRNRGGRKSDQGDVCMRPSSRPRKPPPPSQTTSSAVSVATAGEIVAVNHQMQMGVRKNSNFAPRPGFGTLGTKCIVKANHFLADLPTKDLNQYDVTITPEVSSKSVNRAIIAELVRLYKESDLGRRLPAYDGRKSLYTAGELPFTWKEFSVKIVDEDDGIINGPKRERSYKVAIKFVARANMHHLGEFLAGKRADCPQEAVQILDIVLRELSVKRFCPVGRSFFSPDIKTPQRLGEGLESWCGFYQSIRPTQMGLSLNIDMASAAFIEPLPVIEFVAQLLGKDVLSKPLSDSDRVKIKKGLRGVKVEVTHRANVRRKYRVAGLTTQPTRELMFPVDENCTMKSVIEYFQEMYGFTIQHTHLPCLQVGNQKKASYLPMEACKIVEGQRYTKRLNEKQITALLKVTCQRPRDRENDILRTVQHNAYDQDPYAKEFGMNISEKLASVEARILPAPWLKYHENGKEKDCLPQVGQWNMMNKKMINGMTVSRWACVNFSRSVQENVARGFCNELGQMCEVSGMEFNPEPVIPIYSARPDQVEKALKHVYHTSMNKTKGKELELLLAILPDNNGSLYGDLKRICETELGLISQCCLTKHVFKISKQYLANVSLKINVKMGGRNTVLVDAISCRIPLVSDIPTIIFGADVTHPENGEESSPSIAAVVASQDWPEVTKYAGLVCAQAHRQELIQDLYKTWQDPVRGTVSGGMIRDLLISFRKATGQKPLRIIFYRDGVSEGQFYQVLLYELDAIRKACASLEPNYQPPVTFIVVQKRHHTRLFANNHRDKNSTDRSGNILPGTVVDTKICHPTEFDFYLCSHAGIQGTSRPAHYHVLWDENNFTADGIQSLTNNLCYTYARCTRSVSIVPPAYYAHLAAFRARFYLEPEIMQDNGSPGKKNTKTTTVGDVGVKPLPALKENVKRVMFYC
# T3: MBP-AGO1 (A. thaliana, UniProt O04379 1-1048)
# T3 construct: ARGONAUTE 1 (AGO1), A. thaliana; purified as described in Zhang et al., 2006b; source: E. coli, purified (amylose resin); not shown: MBP, N-terminal, kept
# T3 sequence (looked up): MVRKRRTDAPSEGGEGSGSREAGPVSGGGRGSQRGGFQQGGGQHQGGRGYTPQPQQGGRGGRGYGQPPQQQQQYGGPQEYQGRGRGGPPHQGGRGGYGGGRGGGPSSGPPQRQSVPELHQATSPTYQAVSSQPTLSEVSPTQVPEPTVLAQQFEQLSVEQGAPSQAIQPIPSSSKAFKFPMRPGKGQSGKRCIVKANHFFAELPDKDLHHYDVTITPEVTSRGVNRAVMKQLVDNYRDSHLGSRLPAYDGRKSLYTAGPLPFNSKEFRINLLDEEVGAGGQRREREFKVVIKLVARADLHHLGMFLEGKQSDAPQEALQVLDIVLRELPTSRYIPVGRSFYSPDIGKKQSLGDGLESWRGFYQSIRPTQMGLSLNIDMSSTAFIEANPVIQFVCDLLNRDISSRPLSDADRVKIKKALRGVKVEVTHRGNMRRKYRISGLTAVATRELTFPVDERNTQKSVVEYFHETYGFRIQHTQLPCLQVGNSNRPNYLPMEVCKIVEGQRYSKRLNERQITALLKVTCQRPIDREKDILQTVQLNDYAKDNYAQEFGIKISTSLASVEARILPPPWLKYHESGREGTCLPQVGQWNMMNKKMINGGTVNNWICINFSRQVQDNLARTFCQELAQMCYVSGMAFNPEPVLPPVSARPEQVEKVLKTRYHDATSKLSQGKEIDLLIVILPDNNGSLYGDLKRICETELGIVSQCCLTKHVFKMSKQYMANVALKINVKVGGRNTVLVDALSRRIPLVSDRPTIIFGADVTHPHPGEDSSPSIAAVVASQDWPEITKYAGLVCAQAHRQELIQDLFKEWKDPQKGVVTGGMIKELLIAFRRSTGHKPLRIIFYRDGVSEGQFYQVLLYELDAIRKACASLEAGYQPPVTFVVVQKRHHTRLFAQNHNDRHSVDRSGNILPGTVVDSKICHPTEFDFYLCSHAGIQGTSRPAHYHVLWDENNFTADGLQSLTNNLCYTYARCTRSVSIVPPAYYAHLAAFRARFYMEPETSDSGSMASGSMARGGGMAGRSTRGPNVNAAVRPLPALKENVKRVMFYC
# T4: MBP-AGO10 NC (127-336) (A. thaliana, UniProt Q9XGW1 127-336)
# T4 construct: source: E. coli BL21 (DE3), purified (amylose resin); not shown: MBP, N-terminal, kept
# T4 sequence (looked up): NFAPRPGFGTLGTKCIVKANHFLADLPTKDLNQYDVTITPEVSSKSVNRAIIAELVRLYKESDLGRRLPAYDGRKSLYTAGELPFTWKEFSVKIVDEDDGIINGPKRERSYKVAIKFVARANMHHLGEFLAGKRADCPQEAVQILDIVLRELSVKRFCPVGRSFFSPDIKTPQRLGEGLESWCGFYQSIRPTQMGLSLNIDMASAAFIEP
# Legend:
# MBP-AGO10 PIWI (625-988) = target: T1, MBP-AGO10 PIWI (625-988); test: pull-down; His-SUMO baits and MBP-fusion preys purified from E. coli; prey preabsorbed on Ni-NTA resin, then incubated with bait 1 hr at room temperature and captured on Ni-NTA; 50 mM Tris pH 7.5, 150 mM NaCl, 0.2% glycerol, 0.6% Triton X-100, 0.5 mM β-mercaptoethanol; six washes with 300 mM NaCl; blot with anti-MBP; settings: both partners purified
# MBP-AGO10 = target: T2, MBP-AGO10; test: as above; settings: both partners purified
# MBP-AGO1 = target: T3, MBP-AGO1; test: as above; settings: both partners purified
# MBP-AGO10 NC (127-336) = target: T4, MBP-AGO10 NC (127-336); test: as above; settings: both partners purified
# [1] = target: the molecule itself; test: SEC; purified proteins after SUMO protease cleavage on Superdex75 (1.6 x 60), 20 mM Tris-HCl pH 7.5, 150 mM NaCl
Binder,binding result (MBP-AGO10 PIWI (625-988)),binding result (MBP-AGO10),binding result (MBP-AGO1),binding result (MBP-AGO10 NC (127-336)),binding result [1],other results
"6His-SUMO-RICE2 (natural protein, A. thaliana, UniProt Q9FNG3 1-206, looked up, RICE2 (At5g06450; AtDECP), A. thaliana; open reading frame in pET28a-SUMO-DC; also called AtDECP; source: E. coli BL21 (DE3), purified (Ni-NTA); not shown: His6, N-terminal, kept; SUMO, N-terminal, kept) MASFDGPKFKMTDGSYVQTKTIDVGSSTDISPYLSLIREDSILNGNRAVIFDVYWDVGFPETETKTKTSGWSLSSVKLSTRNLCLFLRLPKPFHDNLKDLYRFFASKFVTFVGVQIEEDLDLLRENHGLVIRNAINVGKLAAEARGTLVLEFLGTRELAHRVLWSDLGQLDSIEAKWEKAGPEEQLEAAAIEGWLIVNVWDQLSDE",binds,binds,binds,binds,–,–
"RICE2, purified recombinant (SUMO tag cleaved) (enzyme, A. thaliana, UniProt Q9FNG3 1-206, looked up, RICE2 (At5g06450; AtDECP), A. thaliana; full-length cDNA in pET28a-SUMO (BamHI/SacI); also called AtDECP; source: E. coli BL21 (DE3), purified (Ni-NTA, SUMO protease cleavage, SEC); not shown: His6, N-terminal, cleaved; SUMO, N-terminal, cleaved) MASFDGPKFKMTDGSYVQTKTIDVGSSTDISPYLSLIREDSILNGNRAVIFDVYWDVGFPETETKTKTSGWSLSSVKLSTRNLCLFLRLPKPFHDNLKDLYRFFASKFVTFVGVQIEEDLDLLRENHGLVIRNAINVGKLAAEARGTLVLEFLGTRELAHRVLWSDLGQLDSIEAKWEKAGPEEQLEAAAIEGWLIVNVWDQLSDE",–,–,–,–,–,stoichiometry N [1]: ~6
"6His-SUMO-RICE1 (natural protein, A. thaliana, UniProt Q9SF21 1-200, looked up, RICE1 (At3g11770), A. thaliana; open reading frame in pET28a-SUMO-DC; source: E. coli BL21 (DE3), purified (Ni-NTA); not shown: His6, N-terminal, kept; SUMO, N-terminal, kept) MASFDGQGFMMVDNSWVQTKAIDVESTTDISPYLSKILEDSVWNGNRSIVFDVYWDVKSVSTKSEWRLCSVKFSTKNFCLFLRLPNPFCDNLKDLYRFFASKFVTFVGVQIQEDLALLKENHGIVIRSSLEIGKLAAKARGTPIVEFLGTRELAHKILWYDMSRLDSIQSKWDEASSNDRLEAAAIEGWLIFNVYDQLQQ",binds,binds,binds,binds,–,–
"RICE1 E187A, purified recombinant (enzyme, A. thaliana, UniProt Q9SF21 1-200, looked up, RICE1 (At3g11770), A. thaliana; point mutant made on pET28a-SUMO-RICE1; source: E. coli BL21 (DE3), purified (Ni-NTA, SUMO protease cleavage, SEC); not shown: His6, N-terminal, cleaved; SUMO, N-terminal, cleaved) MASFDGQGFMMVDNSWVQTKAIDVESTTDISPYLSKILEDSVWNGNRSIVFDVYWDVKSVSTKSEWRLCSVKFSTKNFCLFLRLPNPFCDNLKDLYRFFASKFVTFVGVQIQEDLALLKENHGIVIRSSLEIGKLAAKARGTPIVEFLGTRELAHKILWYDMSRLDSIQSKWDEASSNDRLEAAAIAGWLIFNVYDQLQQ",–,–,–,–,binds,–
"RICE1 D52A, purified recombinant (enzyme, A. thaliana, UniProt Q9SF21 1-200, looked up, RICE1 (At3g11770), A. thaliana; point mutant made on pET28a-SUMO-RICE1; source: E. coli BL21 (DE3), purified (Ni-NTA, SUMO protease cleavage, SEC); not shown: His6, N-terminal, cleaved; SUMO, N-terminal, cleaved) MASFDGQGFMMVDNSWVQTKAIDVESTTDISPYLSKILEDSVWNGNRSIVFAVYWDVKSVSTKSEWRLCSVKFSTKNFCLFLRLPNPFCDNLKDLYRFFASKFVTFVGVQIQEDLALLKENHGIVIRSSLEIGKLAAKARGTPIVEFLGTRELAHKILWYDMSRLDSIQSKWDEASSNDRLEAAAIEGWLIFNVYDQLQQ",–,–,–,–,binds,–
"RICE1 Y54S, purified recombinant (enzyme, A. thaliana, UniProt Q9SF21 1-200, looked up, RICE1 (At3g11770), A. thaliana; point mutant made on pET28a-SUMO-RICE1; source: E. coli BL21 (DE3), purified (Ni-NTA, SUMO protease cleavage, SEC); not shown: His6, N-terminal, cleaved; SUMO, N-terminal, cleaved) MASFDGQGFMMVDNSWVQTKAIDVESTTDISPYLSKILEDSVWNGNRSIVFDVSWDVKSVSTKSEWRLCSVKFSTKNFCLFLRLPNPFCDNLKDLYRFFASKFVTFVGVQIQEDLALLKENHGIVIRSSLEIGKLAAKARGTPIVEFLGTRELAHKILWYDMSRLDSIQSKWDEASSNDRLEAAAIEGWLIFNVYDQLQQ",–,–,–,–,binds,–
